# Measured values reported in the DeepSol protein solubility set.
# Assay: soluble on expression in E. coli; label from the status in PepcDB or PDB records
row,Sequence,soluble on expression in E. coli
1,MRRTLHNELQELRGNIRVYCRIRPALKNLENSDTSLINVNEFDDNSGVQSMEVTKIQNTAQVHEFKFDKIFDQQDTNVDVFKEVGQLVQSSLDGYNVCIFAYGQTGSGKTFTMLNPGDGIIPSTISHIFNWINKLKTKGWDYKVNCEFIEIYNENIVDLLRSDNNNKEDTSIGLKHEIRHDQETKTTTITNVTSCKLESEEMVEIILKKANKLRSTASTASNEHSSRSHSIFIIHLSGSNAKTGAHSYGTLNLVDLAGSERINVSQVVGDRLRETQNINKSLSCLGDVIHALGQPDSTKRHIPFRNSKLTYLLQYSLTGDSKTLMFVNISPSSSHINETLNSLRFASKVNSTRLVSRK,soluble
2,GAMAMRIYYIGVFRSGGEKALELSEVKDLSQFGFFERSSVGQFMTFFAETVASRTGAGQRQSIEEGNYIGHVYARSEGICGVLITDKEYPVRPAYTLLNKILDEYLVAHPKEEWADVTETNDALKMKQLDTYISKYQDPSQADA,soluble
3,MDDRTEYDVYTDGSYVNGQYAWAYAFVKDGKVHYEDADVGKNPAAATMRNVAGEIAAALYAVKKASQLGVKIRILHDYAGIAFWATGEWKAKNEFTQAYAKLMNQYRGIYSFEKVKAHSGNEFNDYVDMKAKSALGIRDLEHHHHHH,soluble
4,QVQLQQPGSVLVRPGASVKLSCKASGFTFTSSWMHWAKQRPGQGLEWIGEIHPNSGNTHYNEKFKGKATLTVDTSSSTAYVDLSSLTSEDSAVYYCARMRYGDYYAMDNWGQGTSVTVSSAKTTAPPVYPLAPVCGDTTGSSVTLGCLVKGYFPESVTLLWNSGSLSSGVHTFPAVLQSDLYTLSSSVTVTSSTWPSQSITCNVAHPASSTKVDKKIEPRG,soluble
5,TKLTEQQTMNGLLRFGEYQRIIERRSFSLLDMKRFVTALGLESGGYRGEFSDLVNQGQPAIVPISYAGFKHFVVYKGYKDGRVYVADPALGNISFDEVRFKEIWENNTLFLIQVPE,not soluble
6,MSLGKYFGTDGVRGEANVELTPELAFKLGRFGGYVLSQHETERPKVFVARDTRISGEMLESALIAGLLSVGIEVYKLGVLATPGVSYLVRTEKASAGVMISASHNPALDNGIKFFGNDGFKLADDQELEIEALLDAPEDTLPRPSAEGLGTLVDYPEGLRKYEKFLVTTGTDLSGMTVALDTANGAASVSARDVFLDLNAEIAVIGEKPNGLNINDGVGSTRPEQLQELVKETGADLGLAFDGDSDRLIAVDETGEIVDGDRIMFIIGKYLSEKGLLAHNTIVTTVMSNLGFHKALDKQGINKAITAVGDRYVVEEMRSSGYNLGGEQSGHVIIMDYNTTGDGQLTAIQLAKVMKETGKSLSELAAEVTIYPQKLVNIRVENSMKERAMEVPAIANIIAKMEDEMAGNGRILVRPSGTEPLLRVMAEAPTDAEVDYYVDTIADVVRTEIGCDNEGHHHHHH,soluble
7,MQYDYLEALVKDLSLYKIKTEINMKNLRIWQTLSLWLVLLVTSLPLSAQTALLEKLGKIADITGTQPLESTEFVEKYVAYFTQPLDHRHPEKGSFSQRVIVSHVGFDRPTVMVTEGYGASYALGANYREELSKLFNTNMIFVEYRYFLESTPTPKDWQYLTAENSAEDLHAVREAFRSIYPGKWIATGISKGGQTAMLYRTFFPEDVDISVPYVAPLCYGVEDGRHEPFLKMVSTPEARKKIEDFQLEVLKRKPTLLPRFEKYCAGKKYKFRAPVEEIYDYSVLEYSFSIWQWGTPVDQIPAVTASDDELFKHLLAISEPSYFEEEGANTSFFVQAARELGYYGYDIRPFKKYLTIKTSKDYLKRLMLPEELGDMKFDKTLSRKIIHFLKNNDPKMIFIYGQNDPWTAAGVTWLKGKKNIHVFVEPNGSHLARIGTLPQKEKEEAIGLIKKWLEE,not soluble
8,MGSDKIHHHHHHMRKHGGDVYAYSGQYENILDFSANTNAFIDTGVLSRYPEVSPGDIEKMILQYTGAKSLRVIIGPGLTHFIYRIPAWMGLRRSLIIEPNFNEYEASLLAYGSRTSSLGLGVLKRNPEIVRSYRPDSIFICSPVNPTGDLVDAGLLRKLSMEMSRMGGILFVDQAFGDFVPEHAEETVRIAEEMGNVIIGRSLTKILSIPSLRLGYILVSDQVFGMIRDREEPWAVCEPALEFVRKADLKALRDTSLKRIGEERSYLMEALENMGFEILGDPHANFIAFRSPFEIDLKKQLLKSGILIRDLSDYADFGKNCYRVAVRGRSENALLIQALRNAIL,not soluble
9,MSLGKPEFYDFCVHAVPDGANAVEELSSLSRHLGYSGIALANHSDKLPSKKPVLPSIEGFEVFRGIELVEENPSKLHGLVGKFRSSMDVLIVHGGSEAVNRAALENPRVDILNHPAFDKSSGLNQVLAKAAAENGVAIGITLRPLLHSRGSRRIRMLSDLKANLELARKYDVPLVLCSDAMSCYDLRSPMETLAFAEVCGLEEDEALDALSTVPKKIIKKNRPGPGYVREGIEVLEGEGHHHHHH,not soluble
10,MSLLGRVLLFYKKGIFNDDLKKFLRSKNINVIDVRIGKYVEVDIMDDPRKVISLIGEPLFMVTEISGTFKPLFYEMRFWECHEIIEEKWREVKNKDDKKFLQAIILLCASLIKYLKGEIEVSDMLMEKALSLISDLPQELLPLLYISLGLNTEGHHHHHH,soluble
11,MEKVMIELEEQVNQLINQILLKAENQYELLIGQCRSKVKLTNTQEHILMLLSEGQKTNSELAKALNVSQAAVTKAVKTLVKEGMLEGKKDKDDGRVTYFVLTQEAQPIAQEHKEHHQETLGVYRSVLDQFDHQERQVIGRFLIKLAEKIEE,not soluble
12,MAHHHHHHMSFCDFVVVTNNSVEIFKISFDNLIITPIKKHFIKSKHCWYDEKSSYICLLSANKSNVILPYLLSNNNVIKLSKIELNILKNDNINKNDIEIITLYNETYCIHKDFKNGRISFRCLSSTIYFDYVLDLFYNGVIETFSLDNLFGVFNHTNQYVYLFDIKYNKKKTTIHSFDDNNNHTINISYLTTPKQFKTQINFNHMAFEPYNLLIDNHYGNVYKVKVDYDVLMLQICQHFSNLVRT,soluble
13,MKFTWIALPGVLLLSACSSSQPNAPRPPRIGMPNPAAVYCEQQGGTLMPVQTPQGVRSDCKLPNGEIIDEWTLWRREHPDTKK,not soluble
14,MTSSPELARAVAATLARHVTDVVICPGSRNSPLSLELIARDDIRVHTRIDERSAAFLALGLARSSKRHVAVVTTSGTAVANCAPAMIEAAYSHTPLIMVSADRPERLHGTGANQTIEQRGIFNVVDTDHVVDITDLNSISFARNVIHINVALDVPLVDVLPEV,not soluble
15,MAKYTRDDILAQAKQLAKMIAETEEVDFFKRAEEKIHQNEKVRTLINELKSLQKQAVNLQHYGKHEALKQVEAKIDAIYEELSQIPIVSEFQQSQSDVNDLLQLVASTISNTVTDEILASTGGDVLRGETGAALRYNKHGGCH,not soluble
16,MGSDKIHHHHHHMVQTPSKPITLDEFLKLPETEPASEYIEGKIIQKPMPQGKHSAIQSECVSVINSVVKPQRIARAFLELRCTFGDHSTVPDISVFIWSRIPREENGEIANIFLIAPDWTIEILSPDQSQTKVTKNILHCLKHGTQMGWLIDPDEQTVFVYRPQQETEVFDEPDALVPVPSFASELHLSIKDLFSWLL,not soluble
17,MSFLISFDKSKKHPAHLQLANNLKIALALEYASKNLKPEVDNDNAAMELRNTKEPFLLFDANAILRYVMDDFEGQTSDKYQFALASLQNLLYHKELPQQHVEVLTNKAIENYLVELKEPLTTTDLILFANVYALNSSLVHSKFPELPSKVHNAVALAKKHVPRDSSSFKNIGAVKIQADLTVKPKDSEILPKPNERNILITSALPYVNNVPHLGNIIGSVLSADIFARYCKGRNYNALFICGTDEYGTATETKALEEGVTPRQLCDKYHKIHSDVYKWFQIGFDYFGRTTTDKQTEIAQHIFTKLNSNGYLEEQSMKQLYCPVHNSYLADRYVEGECPKCHYDDARGDQCDKCGALLDPFELINPRCKLDDASPEPKYSDHIFLSLDKLESQISEWVEKASEEGNWSKNSKTITQSWLKDGLKPRCITRDLVWGTPVPLEKYKDKVLYVWFDATIGYVSITSNYTKEWKQWWNNPEHVSLYQFMGKDNVPFHTVVFPGSQLGTEENWTMLHHLNTTEYLQYENGKFSKSRGVGVFGNNAQDSGISPSVWRYYLASVRPESSDSHFSWDDFVARNNSELLANLGNFVNRLIKFVNAKYNGVVPKFDPKKVSNYDGLVKDINEILSNYVKEMELGHERRGLEIAMSLSARGNQFLQENKLDNTLFSQSPEKSDAVVAVGLNIIYAVSSIITPYMPEIGEKINKMLNAPALKIDDRFHLAILEGHNINKAEYLFQRIDEKKIDEWRAKYGGQQV,not soluble
